Ends that are not written are not given here.
T1: corticotropin releasing factor 2 receptor
T1 sequence (Q13324 whole entry, species assumed, looked up): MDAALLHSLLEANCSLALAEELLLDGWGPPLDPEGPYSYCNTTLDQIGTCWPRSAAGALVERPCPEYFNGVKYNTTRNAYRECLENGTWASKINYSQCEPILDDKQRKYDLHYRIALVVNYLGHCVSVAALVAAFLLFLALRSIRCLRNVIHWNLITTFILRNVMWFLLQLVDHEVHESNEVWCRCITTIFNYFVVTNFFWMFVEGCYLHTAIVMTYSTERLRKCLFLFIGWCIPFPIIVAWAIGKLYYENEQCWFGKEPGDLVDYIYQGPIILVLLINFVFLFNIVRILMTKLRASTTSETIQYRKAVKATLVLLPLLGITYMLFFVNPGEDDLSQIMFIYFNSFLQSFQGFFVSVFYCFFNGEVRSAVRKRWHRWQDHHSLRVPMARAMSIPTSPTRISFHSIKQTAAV


target: corticotropin releasing factor 1 receptor; assay: cell-based or functional assay

| Binder | CRF1R EC50 | CRF1R Emax % |
| --- | --- | --- |
| ZGPPISIDLPFQLLRKAIEIEKQEKEKQQAANNALLLDTI (C-terminal amide) [SEQ ID NO 365] | 1000 nM | 21% |
| ZGPPISIDLPYWLLRKMIEIEKQEKEKQQAANNRLLLDTI (C-terminal amide) [SEQ ID NO 215] | 188 nM | 100% |
| ZGPPISIDVPFQLLRKVIEIEKQEKEKQQAANNARLLDTI (C-terminal amide) [SEQ ID NO 382] | 1000 nM | 8% |
| ZGPPISIDLPFWLLRKMIEIEKQEKEKQQAANNRLLLDTI (C-terminal amide) [SEQ ID NO 217] | 94.7 nM | 100% |
| ZGPPISIDVPYQLLRKVIEIEKQEKEKQQAANNARLLDTI (C-terminal amide) [SEQ ID NO 374] | 1000 nM | 11% |
| ZGPPISIDVPLQLLRKVIEIEKQEKEKQQAANNARLLDTI (C-terminal amide) [SEQ ID NO 380] | 1000 nM | 16% |
| ZGPPISIDLPQWLLRKMIEIEKQEKEKQQAANNRLLLDTI (C-terminal amide) [SEQ ID NO 213] | 1000 nM | 76% |
| ZGPPISIDVPYWLLRKVIEIEKQEKEKQQAANNARLLDTI (C-terminal amide) [SEQ ID NO 372] | 1000 nM | 13% |
| ZGPPISIDLPWWLLRKMIEIEKQEKEKQQAANNRLLLDTI (C-terminal amide) [SEQ ID NO 216] | 49.8 nM | 98% |
| ZGPPISIDVPYHLLRKVIEIEKQEKEKQQAANNARLLARI (C-terminal amide) [SEQ ID NO 377] | 1000 nM | 25% |
| ZGPPISIDVPIYLLRKVIEIEKQEKEKQQAANNARLLARI (C-terminal amide) [SEQ ID NO 379] | 1000 nM | 8% |
| IVLSLDVPIGLLQILLEQARHAHAHAHAHAQAHILAHV-NH2 [SEQ ID NO 369] | 1000 nM | 4% |
| DNPSLSIDVPLLLLRTLLELEKTQSQRERAEQNARIFARV-NH2 [SEQ ID NO 384] | 1000 nM | 70.3% |
| IVLSLDVPIHLLQILLEQARARAAREQATTNARILARV-NH2 [SEQ ID NO 371] | 1000 nM | 22% |
| IVLSLDVPIGLLQILLEQARARAAREQATTNARILARVM-NH2 [SEQ ID NO 368] | 1000 nM | – |
| DNPSLSIDVPLFLLRTLLELEKTQSQRERAEQNARIFARV-NH2 [SEQ ID NO 385] | 1000 nM | 46% |

Next, values leading:

| CRF1R EC50 | CRF1R Emax % | Binder |
| --- | --- | --- |
| 1000 nM | 8% | ZGPPISIDVPYHLLRKVIEIEKQEKEKQQAANNARLLDTI (C-terminal amide) [SEQ ID NO 376] |
| 445 nM | 100% | ZGPPISIDLPHQLLRKMIEIEKQEKEKQQAANNRLLLDTI (C-terminal amide) [SEQ ID NO 212] |
| 1000 nM | 55% | ZGPPISIDVPFQLLRKVIEIEKQEKEKQQAANNARLLARI (C-terminal amide) [SEQ ID NO 383] |
| 1000 nM | 78.2% | DNPSLSIDVPFFLLRTLLELEKTQSQRERAEQNARIFARV-NH2 [SEQ ID NO 386] |
| 1000 nM | 33% | IVLSLDVSIGLLQILLEQARARAAREQATTNARILARV-NH2 [SEQ ID NO 370] |
| 1000 nM | 9% | ZGPPISIDVPYWLLRKVIEIEKQEKEKQQAANNARLLARI (C-terminal amide) [SEQ ID NO 373] |
| 1000 nM | 22% | ZGPPISIDVPYQLLRKVIEIEKQEKEKQQAANNARLLARI (C-terminal amide) [SEQ ID NO 375] |
| 1000 nM | 36% | ZGPPISIDVPYYLLRKVIEIEKQEKEKQQAANNARLLARI (C-terminal amide) [SEQ ID NO 378] |
| 1000 nM | 27% | ZGPPISIDVPLQLLRKVIEIEKQEKEKQQAANNARLLARI (C-terminal amide) [SEQ ID NO 381] |
| 100 nM | 4% | IVLSLDVVIGLLQILLEQARARAAREQATTNARILARV-NH2 [SEQ ID NO 214] |
| 1000 nM | 50.1% | DNPSLSIDVPLYLLRTLLELEKTQSQRERAEQNARIFARV-NH2 [SEQ ID NO 387] |
| 1000 nM | 9% | IVLSLDVPIGLLQILLEKAAAEAEAAAKAAQEQILAHV-NH2 [SEQ ID NO 366] |
| 1000 nM | 6% | IVLSLDVPIGLLQILLEQARHAAAHAAAHAQAHILAHV-NH2 [SEQ ID NO 367] |

target: T1, corticotropin releasing factor 2 …; assay: cell-based or functional assay

| Binder | CRF2R EC50 | CRF2R Emax % |
| --- | --- | --- |
| ZGPPISIDLPFQLLRKAIEIEKQEKEKQQAANNALLLDTI (C-terminal amide) [SEQ ID NO 365] | 23.4 nM | 94% |
| ZGPPISIDLPYWLLRKMIEIEKQEKEKQQAANNRLLLDTI (C-terminal amide) [SEQ ID NO 215] | 4 nM | 100% |
| ZGPPISIDVPFQLLRKVIEIEKQEKEKQQAANNARLLDTI (C-terminal amide) [SEQ ID NO 382] | 39.5 nM | 100% |
| ZGPPISIDLPFWLLRKMIEIEKQEKEKQQAANNRLLLDTI (C-terminal amide) [SEQ ID NO 217] | 4.7 nM | 95% |
| ZGPPISIDVPYQLLRKVIEIEKQEKEKQQAANNARLLDTI (C-terminal amide) [SEQ ID NO 374] | 15.8 nM | 91% |
| ZGPPISIDVPLQLLRKVIEIEKQEKEKQQAANNARLLDTI (C-terminal amide) [SEQ ID NO 380] | 19 nM | 100% |
| ZGPPISIDLPQWLLRKMIEIEKQEKEKQQAANNRLLLDTI (C-terminal amide) [SEQ ID NO 213] | 22.3 nM | 99% |
| ZGPPISIDVPYWLLRKVIEIEKQEKEKQQAANNARLLDTI (C-terminal amide) [SEQ ID NO 372] | 14.2 nM | 100% |
| ZGPPISIDLPWWLLRKMIEIEKQEKEKQQAANNRLLLDTI (C-terminal amide) [SEQ ID NO 216] | 9.9 nM | 90% |
| ZGPPISIDVPYHLLRKVIEIEKQEKEKQQAANNARLLARI (C-terminal amide) [SEQ ID NO 377] | 19.2 nM | 83% |
| ZGPPISIDVPIYLLRKVIEIEKQEKEKQQAANNARLLARI (C-terminal amide) [SEQ ID NO 379] | 70.5 nM | 94% |
| IVLSLDVPIGLLQILLEQARHAHAHAHAHAQAHILAHV-NH2 [SEQ ID NO 369] | 100 nM | 18% |
| DNPSLSIDVPLLLLRTLLELEKTQSQRERAEQNARIFARV-NH2 [SEQ ID NO 384] | 7.1 nM | 97.3% |
| IVLSLDVPIHLLQILLEQARARAAREQATTNARILARV-NH2 [SEQ ID NO 371] | 6.62 nM | 97% |
| IVLSLDVPIGLLQILLEQARARAAREQATTNARILARVM-NH2 [SEQ ID NO 368] | 50.4 nM | – |
| DNPSLSIDVPLFLLRTLLELEKTQSQRERAEQNARIFARV-NH2 [SEQ ID NO 385] | 10.2 nM | 100% |

The remaining lines, values ahead:

| CRF2R EC50 | CRF2R Emax % | Binder |
| --- | --- | --- |
| 52.5 nM | 100% | ZGPPISIDVPYHLLRKVIEIEKQEKEKQQAANNARLLDTI (C-terminal amide) [SEQ ID NO 376] |
| 21.3 nM | 100% | ZGPPISIDLPHQLLRKMIEIEKQEKEKQQAANNRLLLDTI (C-terminal amide) [SEQ ID NO 212] |
| 9.31 nM | 96% | ZGPPISIDVPFQLLRKVIEIEKQEKEKQQAANNARLLARI (C-terminal amide) [SEQ ID NO 383] |
| 8.7 nM | 96% | DNPSLSIDVPFFLLRTLLELEKTQSQRERAEQNARIFARV-NH2 [SEQ ID NO 386] |
| 51 nM | 75% | IVLSLDVSIGLLQILLEQARARAAREQATTNARILARV-NH2 [SEQ ID NO 370] |
| 11.5 nM | 100% | ZGPPISIDVPYWLLRKVIEIEKQEKEKQQAANNARLLARI (C-terminal amide) [SEQ ID NO 373] |
| 11.5 nM | 100% | ZGPPISIDVPYQLLRKVIEIEKQEKEKQQAANNARLLARI (C-terminal amide) [SEQ ID NO 375] |
| 14.9 nM | 100% | ZGPPISIDVPYYLLRKVIEIEKQEKEKQQAANNARLLARI (C-terminal amide) [SEQ ID NO 378] |
| 12.7 nM | 99% | ZGPPISIDVPLQLLRKVIEIEKQEKEKQQAANNARLLARI (C-terminal amide) [SEQ ID NO 381] |
| 74.3 nM | 60% | IVLSLDVVIGLLQILLEQARARAAREQATTNARILARV-NH2 [SEQ ID NO 214] |
| 17.9 nM | 100% | DNPSLSIDVPLYLLRTLLELEKTQSQRERAEQNARIFARV-NH2 [SEQ ID NO 387] |
| 100 nM | 46% | IVLSLDVPIGLLQILLEKAAAEAEAAAKAAQEQILAHV-NH2 [SEQ ID NO 366] |
| 100 nM | 18% | IVLSLDVPIGLLQILLEQARHAAAHAAAHAQAHILAHV-NH2 [SEQ ID NO 367] |
